“And” between values parts separate entries of the source, which are not always exact repeats. Identical values can stand only once.
B1: Histone H1.4: PKGIα substrate, phospho site S36 (protein, UniProt P43274 2-219, looked up)
Histone H1.4: SETAPAAPAAPAPAEKTPVKKKARKAAGGAKRKTSGPPVSELITKAVAASKERSGVSLAALKKALAAAGYDVEKNNSRIKLGLKSLVSKGTLVQTKGTGASGSFKLNKKAASGEAKPKAKRAGAAKAKKPAGAAKKPKKAAGTATAKKSTKKTPKKAKKPAAAAGAKKAKSPKKAKATKAKKAPKSPAKAKTVKPKAAKPKTSKPKAAKPKKTAAKKK
modifications: phosphorylated at S36
B2: Cytoplasmic dynein 1 light intermediate chain 1: PKGIα substrate, phospho sites T408 (r11) and S412 (r12) (protein, UniProt Q9QXU8 1-523, looked up)
Cytoplasmic dynein 1 light …: MAAVGRVGSFGSSPPGLASTYASGPLANELASGSGGPAAGDDEDGQNLWSRILREVSTRSRSKLPTGKNVLLLGEDGAGKTSLIRRIQGIEEYKKGRGLEYLYLNVHDEDRDDQTRCNVWILDGDLYHKGLLKFSLDALSLRDTLVMLVVDMSKPWTALDSLQKWASVVREHVDKLKIPPEEMKEMEQKLIRDFQEYVEPGEDFPASPQRRATAAQEDRDDSVVLPLGADTLTHNLGLPVLVVCTKCDAISVLEKEHDYRDEHFDFIQSHIRKFCLQYGAALIYTSVKENKNIDLVYKYIVQKLYGFPYKIPAVVVEKDAVFIPAGWDNDKKIGILHENFQTLKIEDNFEDIITKPPVRKFVHEKEIMAEDDQVFLMKLQSLLAKQPPTAAGRPVDASPRVPGGSPRTPNRSVSSNVASVSPIPAGSKKIDPNMKAGATSEGVLANFFNSLLSKKTGSPGGPGVGGSPGGGAAGASTSLPPSAKKSGQKPVLSDVHAELDRITRKPASVSPTTPPSPTEGEAS
modifications: phosphorylated at T408 and S412
B3: Heat shock protein beta-6: PKGIα substrate, phospho site S16 (protein, UniProt P97541 1-162, looked up)
Heat shock protein beta-6: MEIRVPVQPSWLRRASAPLPGFSTPGRLFDQRFGEGLLEAELASLCPAAIAPYYLRAPSVALPTAQVPTDPGYFSVLLDVKHFSPEEISVKVVGDHVEVHARHEERPDEHGFIAREFHRRYRLPPGVDPAAVTSALSPEGVLSIQATPASAQASLPSPPAAK
modifications: phosphorylated at S16
B4: G-protein-signaling modulator 1: PKGIα substrate, phospho site S567 (protein, UniProt Q9R080 1-673, looked up)
G-protein-signaling modulator …: MASPAPPAAEELPGPAARRLYSRMEASCLELALEGERLCKAGDFKAGVAFFEAAVQVGTEDLKTLSAIYSQLGNAYFYLKEYARALQFHKHDLLLARTIGDRMGEAKASGNLGNTLKVLGRFDEAIVCCQRHLDIAQEQGDKVGEARALYNIGNVYHAKGKQLSWNAAQDPGHLPPDVRETLHRASEFYERNLSLVKELGDRAAQGRAYGNLGNTHYLLGNFTEATTFHKERLAIAKEFGDKAAERRAYSNLGNAHIFLGRFDVAAEHYKKTLQLSRQIRDQAVEAQACYSLGNTYTLLQDYERAAEYHLRHLVIAQELADRVGEGRACWSLGNAYVSMGSPAQALTFAKKHLQISQEIGDRNGELTARMNIAHLQLALGRLTSPAAAEKPDLAGYEAQGARPKRTQRLSAETWDLLRLPLDREQNGETHHTGDWRGPSRDSLPLPMRSRKYQEGPDAIERRPREGSHSPLDSADVRVQVPRTGIPRAPSSDEECFFDLLSKFQSSRMDDQRCPLEEGQAGAAEATAAPTLEERAAQPSVTASPQTEEFFDLIASSQSRRLDDQRASVGSLPGLRITLNNVGHLRGDGDPQEPGDEFFNMLIKYQSSRIDDQRCPPPDVLPRGPTMPDEDFFSLIQRVQAKRMDEQRVDLAGSPDQEASGLPDPRQQCPPGAS
modifications: phosphorylated at S567
B5: CLIP-associating protein 2: PKGIα substrate, phospho site S436 (protein, UniProt Q99JD4 1-1286, looked up)
CLIP-associating protein 2: MRRLICKRICDYKSFDDEESVDGNRPSSAASAFKVPAPKTPGNPVNSARKPGSAGGPKAGGTSKEGGAGAVDEDDFIKAFTDVPSIQIYSSRELEETLNKIREILSDDKHDWDQRANALKKIRSLLVAGAAQYDCFFQHLRLLDGALKLSAKDLRSQVVREACITVAHLSTVLGNKFDHGAEAIVPTLFNLVPNSAKVMATSGCAAIRFIIRHTHVPRLIPLITSNCTSKSVPVRRRSFEFLDLLLQEWQTHSLERHAAVLVETIKKGIHDADAEARVEARKTYMGLRNHFPGEAETLYNSLEPSYQKSLQTYLKSSGSVASLPQSDRSSSSSQESLNRPFSSKWSTANPSAVAGRVSVGGSKASPLPGSLQRSRSDIDVNAAAGAKAHHAAGQAVRSGRLGAGALNPGSYASLEDTSDKMDGTASEDGRVRAKLSTPLVAVGNAKTDSRGRSRTKMVSQSQPGSRSGSPGRVLTTTALSTVSSGAQRILVNSASAQKRSKIPRSQGCSREASPSRLSVARSSRIPRPSVSQGCSREASRESSRDTSPVRSFQPLGPGYGMSQSSRLSSSVSAMRVLNTGSDVEEAVADALLLGDIRTKKKPARRRYESYGMHSDDDANSDASSACSERSYSSRNGSIPTYMRQTEDVAEVLNRCASSNWSERKEGLLGLQNLLKNQRTLSRVELKRLCEIFTRMFADPHGKVFSMFLETLVDFIQVHKDDLQDWLFVLLTQLLKKMGADLLGSVQAKVQKALDVTRESFPNDLQFNILMRFTVDQTQTPSLKVKVAILKYIETLAKQMDPGDFINSSETRLAVSRVITWTTEPKSSDVRKAAQSVLISLFELNTPEFTMLLGALPKTFQDGATKLLHNHLRNTGNGTQSSMGSPLTRPTPRSPANWSSPLTSPTNTSQNTLSPSAFDYDTENMNSEDIYSSLRGVTEAIQNFSFRSQEDMSEPLKRDPKKEDGDTVCSGPGMSDPRAGGDAPDSSQPALDNKASLLHSVPLHSSPRSRDYNPYNYSDSISPFNKSALKEAMFDDDADQFPDDLSLDHSDLVAELLKELSNHNERIEERKIALYELMKLTQEESFSVWDEHFKTILLLLLETLGDKEPTIRALALKVLKEILRHQPARFKNYAELTVMKTLEAHKDPHKEVVRSAEEAASVLATSISPEQCIKVLCPIIQTADYPINLAAIKMQTKVIERVSKETLNLLLPEIMPGLIQGYDNSESSVRKACVFCLVAVHAVIGDELKPHLSQLTGSKMKLLNLYIKRAQTGSAGADPTTDVSGQS
modifications: phosphorylated at S436
B6: Histone H1.5: PKGIα substrate, phospho site T35 (protein, UniProt D3ZBN0 2-222, looked up)
Histone H1.5: SETAPAETTAPAPVEKSPAKKKTKKAGAAKRKATGPPVSELITKAVSASKERGGVSLPALKKALAAGGYDVEKNNSRIKLGLKSLVSKGTLVQTKGTGASGSFKLNKKVASGEAKPKAKKTGAAKAKKPTGATPKKPKKTAGAKKTVKKTPKKAKKPAAAGVKKVTKSPKKAKAAAKPKKATKSPARPKAVKSKASKPKVTKPKAAKPKAAKVKKAVSKKK
modifications: phosphorylated at T35
B7: Lyrm1 pS110 (protein, UniProt B2RYU8 1-122, looked up)
LYR motif-containing protein 1: MTAASRQEVLGLYRSFFRLARKWQAASGQMEDTIKEKQYILNEARTLFQKNKNLTDPDLIKQCIDECTARIEIGLHYQIPYPRPIHLPPMGLTPRRGRGLQTQEKLRKFSKPLYLKSHDEVS
modifications: phosphorylated at S110

Test system: PKGIα (analogue-sensitive C42S/M438G), cGMP-activated
Assay: Chemical genetic phosphoproteomic screen, cGMP-activated PKGIα C42S/M438G versus unactivated control
Type: biochemical, human PKGIα; substrates in rat heart homogenate
Conditions: PKGIα C42S/M438G + 100 μM cGMP vs basal; 1 h, 30 °C, pH 7.5, rat heart homogenate; label-free LC–MS/MS; n=4; * P<0.05 Dunnett: all values except phospholamban S16
From the text: (§1) We employed a chemical genetic method[18] to identify direct substrates of cGMP-activated PKGIα and disulfide bond-activated PKGIα in heart tissue. This method involves mutation of the ATP binding-site of the kinase of interest so that it can accept a ‘bulky' N6-alkylated ATP analogue for example, N6^−phenylethyl ATP. An oxygen atom on the γ phosphate is also replaced with a sulfur atom—giving an N6-alkylated ATPγS analogue—so that the mutant kinase catalyses the transfer of a thiophosphate group (–PO3S^3−) to its substrates instead of a phosphate. The thiophosphate group is nucleophilic, providing a basis for substrates of the analogue-sensitive kinase to be purified by a ‘covalent capture' protocol. LC–MS/MS allows identification of the substrate and localization of the phosphorylation site. Thiophosphorylated proteins can also be detected with a thiophosphate ester-specific antibody. Analogue-sensitive mutants of PKGIα and PKGIα C42S (which cannot form the activating intermolecular disulfide bond) were generated by mutating Met438 in the ATP-binding domain to Gly. This mutation was chosen based on a previous study where an analogue-sensitive mutant of the catalytic subunit of PKA—which shares sequence homology with PKGIα—was engineered. Detailed protocols are given below.
(§2) A pCDNA3 expression vector encoding human FLAG-tagged PKGIα (ref. [41]) underwent site-directed mutagenesis to generate constructs for untagged WT, C42S, M438G and C42S/M438G PKGIα. Mutations were introduced using the QuikChange II Site-Directed Mutagenesis Kit (Agilent) according to the manufacturer's instructions. Expression and purification of the PKGIα mutants was performed according to a published method[42] as follows: suspension FreeStyle 293-F cells (ThermoFisher Scientific) were transfected with the appropriate PKGIα construct using the stable cationic polymer polyethyleneimine (PEI) as a transfection reagent. After ∼72 h cells were harvested by centrifugation (400g; room temperature; 15 min), re-suspended in ice cold lysis buffer (25 mM sodium phosphate buffer pH 6.8; 10 mM ethylenediaminetetraacetic acid (EDTA); 100 mM NaCl; 10 mM benzamidine hydrochloride; and 10 mM dithiothreitol (DTT)) and frozen in liquid N2. Cells were lysed by three freeze (liquid N2)-thaw (37 °C) cycles and the lysate was clarified by centrifugation at 140,000g and 4 °C for 30 min. The soluble protein fraction was loaded onto a pre-equilibrated 8-(2-aminoethylamino)adenosine-3′, 5′-cyclic monophosphate column (8-AEA-cAMP agarose; BioLog, Germany) followed by washing with 20 column volumes of lysis buffer. The column was further washed with lysis buffer +3 M NaCl (5 column volumes) and PKGIα was then eluted with lysis buffer +150 mM NaCl and 500 μM cAMP. Removal of cAMP and buffer exchange was achieved by extensive dialysis against 25 mM sodium phosphate buffer pH 6.8, 2 mM EDTA and 100 mM NaCl. For ITC analysis, WT PKGIα was incubated with 10 mM lipoic acid for 2 h on ice to obtain ∼100% disulfide dimer (confirmed by SDS-PAGE). Oxidized WT or C42S PKGIα was further purified by size exclusion chromatography using a HiLoad 16/600 Superdex 200 pg column (GE Healthcare) with 50 mM sodium phosphate buffer pH 7.4 and 100 mM NaCl. Proteins were concentrated using Amicon Ultra centrifugal filter devices (Merck Millipore). DTT was absent in storage buffers so that the activating disulfide bond would not be reduced and so that the PKGIα M438G mutant would be oxidized to disulfide dimer in the presence of air (confirmed by SDS-PAGE). Protein concentration was determined by Pierce BCA assay (ThermoFisher) and enzyme activity was confirmed using the Omnia kinase assay kit (ThermoFisher).
(§3) Male Wistar rats (9–10 weeks; body weight 300–330 g) were euthanized by intraperitoneal injection of sodium pentobarbitone (200 mg kg^−1) with heparin (500 USP units). […]

Row | Molecule | Log2 fold change in phosphorylation, cGMP versus control
1 | B1 | 1.30*
2 | B2 | 3.76*
3 | B3 | 2.61*
4 | B4 | 2.93*
5 | B5 | 1.79*
6 | B6 | 3.90*

Same assay, conditions: phospho site S412 (second site of this protein); n=4; * P<0.05

Row | Molecule | Log2 fold change in phosphorylation, cGMP versus control
7 | B2 | 4.15*

Test system: PKGIα (analogue-sensitive M438G), disulfide-activated
Assay: Chemical genetic phosphoproteomic screen, disulfide-activated PKGIα M438G versus unactivated control
Type: biochemical, human PKGIα; substrates in rat heart homogenate
Conditions: control = PKGIα C42S/M438G
From the text: as §1, §2, §3

Row | Molecule | log2 fold change Disulfide vs Control
8 | B7 | 0.4439 and 0.5384

Same assay, conditions: disulfide-activated PKGIα M438G vs basal; 1 h, 30 °C, pH 7.5, rat heart homogenate; label-free LC–MS/MS; n=4; * P<0.05 Dunnett: only phospholamban S16

Row | Molecule | Log2 fold change in phosphorylation, Disulfide versus control
9 | B1 | 0.48
10 | B2 | 1.95
11 | B3 | 1.25
12 | B4 | 1.04
13 | B5 | 0.86
14 | B6 | 1.43

Same assay, conditions: phospho site S412 (second site of this protein); n=4; not significant

Row | Molecule | Log2 fold change in phosphorylation, Disulfide versus control
15 | B2 | 1.66
